Our source for the Kd values is patent US20090075394A1.

The Kd is the concentration at which binding is half-saturated. The low end stands for tighter binding, the high end for weaker binding.

The target of the experiment is Aeropyrum pernix KvAP voltage-dependent potassium channel (Aeropyrum pernix) (UniProt Q9YDF8). Kind of experiment: inhibition of KvAP channel currents by CTX, channels in planar lipid bilayers.
Chain of Aeropyrum pernix KvAP voltage-dependent potassium channel (Aeropyrum pernix) (Q9YDF8 14-295): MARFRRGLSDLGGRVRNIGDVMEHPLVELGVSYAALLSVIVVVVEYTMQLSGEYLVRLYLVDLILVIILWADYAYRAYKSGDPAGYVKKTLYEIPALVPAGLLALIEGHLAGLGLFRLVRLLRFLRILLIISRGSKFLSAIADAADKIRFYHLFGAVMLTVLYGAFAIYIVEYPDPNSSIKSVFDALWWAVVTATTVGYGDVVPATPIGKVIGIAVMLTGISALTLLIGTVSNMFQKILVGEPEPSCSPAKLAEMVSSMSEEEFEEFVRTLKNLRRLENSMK

In turn, “charybdotoxin (from UniProt P13487 23-59) (peptide)” registered a dissociation constant Kd of 400 µM.
